The DeepSol protein solubility set

assay: soluble on expression in E. coli; label from the status in PepcDB or PDB records

Soluble on expression in E. coli, soluble:
MKPDETPMFDPSLLKEVDWSQNTATFSPAISPTHPGEGLVLRPLCTADLNRGFFKVLGQLTETGVVSPEQFMKSFEHMKKSGDYYVTVVEDVTLGQIVATATLIIEHKFIHSCAKRGRVEDVVVSDECRGKQLGKLLLSTLTLLSKKLNCYKITLECLPQNVGFYKKFGYTVSEENYMCRRFLK
KETAAAKFERQHMDSGGGGSGHMENGYTYEDYKNTAEWLLSHTKHRPQVAIICGSGLGGLTDKLTQAQIFDYGEIPNFPRSTVPGHAGRLVFGFLNGRACVMMQGRFHMYEGYPLWKVTFPVRVFHLLGVDTLVVTNAAGGLNPKFEVGDIMLIRDHINLPGFSGQNPLRGPNDERFGDRFPAMSDAYDRTMRQRALSTWKQMGEQRELQEGTYVMVAGPSFQTVAECRVLQKLGADAVGMSTVPEVIVARHCGLRVFGFSLITDKVIMDYESLEKANHEEVLAAGKQAAQKLEQFVSILMASIPLPDKAS
GSALRELKVCLLGDTGVGKSSIMWRFVEDSFDPNINPTIGASFMTKTVQYQNELHKFLIWDTAGLERFRALAPMYYRGSAAAIIVYDITKEETFSTLKNWVRELRQHGPPSIVVAIAGNKCDLTDVREVMERDAKDYADSIHAIFVETSAKNAININELFIEISRRIPST

Soluble on expression in E. coli, not soluble:
MGSDKIHHHHHHMKIYRVGGSVRDELLGLPVKDQDYVVVGATPEEMVRLGYRPVGKDFPVFLHPETHEQYALARTERKIARGYKGFEVYAAPGVTLQEDLARRDLTINAMARDEAGDIVDPFGGIADLQAGILRHIGPAFVEDPVRVLRVARFAARFGFQIAPETLELMKEIVHTGETEALVPERVWQEIAHGLMESHPSRMFYVLRECGALARILPEVDALFGVPQPAHAHPEIDTGIHVMMVIDHAASKQYPLEVRFAGLTHDLGKGTTSPDEWPRHIGHEARSVELVMGLCERIRVPGESRDLALLVARFHGDVHRALELRPATIADMLQATDAYRKKARFQAFLQACASDFHGRPGFADKPYPQKEHLSRALQVAVDVDAGAIAMQLNQSHAGKADLPMRINRQVYAARVERISSLLSHL
MFYRDVLIESRERNIFMSKELQIRNSTVDFLVFTRDAREDGIEVRVQNGDVWLTQKAISQLFDVDRSVVTKHLSNIFKEGELDENSTCANFAQVADNGKTYNYKFYSLAAIIAVGYRINSERAMQFRTWATKVLDTFTKQGYVLDKSRLINGQIFDEDYFEHLIAEIQEIRASERRFYQKITDIYATAVDYDKNSQVTREFYATVQNKMHYAVHGNTAAEVIVARANHNKKHMGLKSWKNAPDGKIVKTDVSIAKNYLEKEELAELNEIVTMYLDYATRQARRHIPMTMEDWKTKLDAFLRFNDAEVLQDKGKVTAAIAKEFAESEFEKYRVIQDSLYESDFDKLMNDMEKNDAIH
MSLSNDTVSGPSMQPSFENGQRLISVRHAQIKRGEVVIVKAPDEPGALYIKRVIGMPGEKIVSKNNQIYINNKKLSQPWLTQGKKMIDAGSDTFYSATQNFTMKSLARSRQFQQYYTKSQLNYINKYNRIPKETYFVMGDHRSVSKDSRYIGTIKRKNVVGVVKLRYWPLNEFKIYEGHHHHHH
MGHHHHHHSHMEPGEELEEEGSPGGREDGFTAEHLAAEAMAADMDPWLVFDARTTPATELDAWLAKYPPSQVTRYGDPGSPNSEPVGWIAVYGQGYSPNSGDVQGLQAAWEALQTSGRPITPGTLRQLAITHHVLSGKWLMHLAPGFKLDHAWAGIARAVVEGRLQVAKVSPRAKEGGRQVICVYTDDFTDRLGVLEADSAIRAAGIKCLLTYKPDVYTYLGIYRANRWHLCPTLYESRFQLGGSARGSRVLDRANNVELT
MMSRVTCSHMSFQTAIRPAESVDIADIRRVARATWHTVYDDILGAETVEEHLKEGYTPPLLEQMIELDEVGLFVSTADDDVVAYMSCGMTDATGFGDLDLYVHPDYWGEGIGTELLHRGEQHLHDLSVRKIRDEVLAENEVGNAFYRAHFEKVGQRTAKVGGQEHPVNVYERRL
MSEPLLEVKNLKTYFPIKGGIFSRTVGHVKAVDGVSFTIKKGEVFGLVGESGSGKTTIGKTILRLVQKTEGEVKFKGHDVHSLSKEELRKHRPNMQLVFQDPFSSLNPRMRIGEALGEPMLAHGLATKENVREKVTEVLELCGLAPYHIDRYPHEFSGGQRQRIVIARAMVLNPEFIVADEPVAALDVSIQAQIINLFSELQEKKGLSYLFISHDLSVVEHLCTKIGIMYLGTIVETAPRDELFTNPLHPYTKALLSAVPIPDPTVKRERIILEGDIPSPANPPSGCCFHTRCPFATDICKQTGNSVMLVKSTLLLVIMYKREGLFQKLKESFFIY
